Experimental data: the nanobody polyreactivity screen of Harvey et al. (2022)

Test: yeast display, Sf9 membrane polyspecificity reagent, FACS + sequencing; frameworks hold sequencing errors
Outline: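 Galactose-induced (36–48 hours) yeast carrying a synthetic nanobody display library were exposed to 10% biotinylated, detergent-solubilized Sf9 membrane reagent at 4 °C for 1 hour. FACS followed streptavidin microbead enrichment, using low and high (top ~1%) gates for expression (anti-HA) and reagent binding (streptavidin). Colony PCR, MiSeq 2 × 250 sequencing and CDR-length filtering followed. Labels for polyreactivity reflect the gate of origin.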

Sequence	polyreactivity (PSR sort gate)
QVQLVESGGGLVQAGGSLRLSCAASGSRFSHYSMGWYRQAPGKERDLVATITGTGVRTSYADSVKGRFTISRDNAKNTVYLQMNSLKAEDTAVYYCAADGDYDPNLYGYWGQGTQVTVSS	low polyreactivity
QVQLVESGGGLVQAGGSLRLSCAASGFIFSHNAMGWYRQAPGKERELVAAISDGGGRTYYADSVKGRFTISRDNAKNTVYLQMNSLKPEDTEVYYCAVLWPYYERYYYWGQGTQVTVSS	high polyreactivity
QVQLVESGGGLVQAGGSLRLSCAASGFTFKYYAMGWYRQAPGKERELVASISWDGTRTYYADSVKGRFTISRDNAKNTVYLQMNSLKPEDTAVYDGAAVFLDYRTYSYGYWGQGTQVTVSS	high polyreactivity
QVQLVESGGGLVQAGGSLRLSCAASGSIFQFSAKGWYRQAPGKERELVAGINTSGGSTYYADSVKGRFTISRDNAKNTVYLQMHSLKPEDTAVYYCMARSRYDTGPQRGYDYWGQGTQVTVSS	low polyreactivity
QVQLVESGGGLVQAGGSLRLSCAASGFIFFKNAMGWYRQAPGKERELVDVISTSGGRTYYADSVKGRFTISRDYAKNTVYLQMNSLKPEDTAVYYCAAGDQYKTRRNGYGYWGQGTQVTVSS	high polyreactivity
RVQLVESGGGLVQAGGSLRLSCAASGITFGRNAMGWYRQAPGKERELVAAISRGGSTNYADSVKGRFTISRDNAKNTVYLQMNSLKPEDTAVYYCNARSFGPTESRYDYWGQGTQVTVSS	high polyreactivity
QVQLVESGGGLVQAGGSLRLSCAASGSTFGPNAMGWYRQAPGNERELVAAITWSGDSTYYADSVKGRFTISRDNAKNTVYLQMNSLKPEDTAVYYCNTDRNVWYAGYDYWGQGTQVSVSS	low polyreactivity
QVQLVESGGGLVQAGGSLRLSCAASGFTFYGNAMGWYRQAPGKERDLVAAITGRAGRTYYADSVKGRFTISRDNSKNTVYLQMNSLKPEDTAVYYCAVQVAQSRTFSTYGYWGQGTQVTVSS	high polyreactivity
QVQLVESGGGLVQAGGSLRLSCAASGGTYVGYSMGWYRQAPGKERELDATITRRGGNTYYADSVKGRFTISRDNAKNTVYLQMNSLKPEDTAVYYCAARKKGSRVGYDYWGQGTQVTVSS	high polyreactivity
QVQLVESGVRLVQAGGRLRLSCAASGRIFDHNAMGWYRQAPGKERELVAAIDSGTSTNYADSVKGRFTISRDNAKNTVYLQMNSLKPEDTAVYYCARLLGPVRHKYDYDYWGQGTQVTVSS	low polyreactivity
QVQILESGVGLVQPGGSLRLICAASGITLQFYALGWYRKATGKEAELVAAISISGGRTYYADSVKGRFTISRDNAKNTFYLQMNSLKPEDTAVYYCAAYLQRAYRYGYWGQGTQVTVSS	high polyreactivity
QVQLVESGGGLVQAGGSLRLSCAASGFIFKRYTMGWYRQAPGKERELVAAISKSGSSTYYADSVKGRFTISRDNAKNTVYLQMHSLKPEDTAVYYCAAGWGWSSFGYGYWGQGTQVTVSS	high polyreactivity
QVQLVESGGGLVQAGGSLRLSCAASGRIFYSYAMGWYRQAPGKEREFVAAISRSGARTYYADSVKGRFTISRDNAKNTVYLQMNSLKPEDTAVYYCAADDFSTVEYDYWGQGTQVTVSS	low polyreactivity
QVQLVESGGGLVQAGGSLRLSCAASGYTFQKYAMGWYIQAPGKERELVAAITRSGTRTYYADSVKGRFTISRDNAKNTVYLQMNSLKPEDTAVYYCAAETYYSIYDYWGQGTQVTVSS	high polyreactivity
QVQLEESVGGLDQAGGSLRLSCAASGHIIVYYPLGWYRQAPGKERELVAAITSGGSTNYADSGKGRFTISRDNAKNTVYLQMNSLKPADSAVYYCAARQWFSHRRWGGSRYDYWGQGTQVTVSS	low polyreactivity
QVQLVESGGGLVQAGGSLRLICAASGSIFGYNAMGWYRQAPGKERELVAVINASGASTYYADSVKGRFTISRDNAKNTVYLQMNSLKPEDTAVYYCAKDPFPFPGGDYWGHGTQVTVSS	low polyreactivity
QVQLVESGGGLVQAGGSLRLSCAASGLIFSVYAMGWYRKAPGKERELVAAITGGGSTHYADSVKGRFTISRDNAKNTVYLQMNSLKPEDTAVYYCATRSYSWLHYWTSRGDEDYWGQGTQVTVSS	high polyreactivity
QVLLVESGGGLVQAGGSLRLSCAASGITFAYYVMGWYRQAPGKERELVAAINWSGGSTYYADSVKGRFTISRDNAKNTVYLQMNSLKPEDPAVYYCAADWSTWYGEKFYWGQGTQVTVSS	high polyreactivity
QVQLQESGGGLAQAGGSLRLTCAASGTIFPADSMGWYRQAPGKERELVAGITSGANTYYADSVKGRFTISHDNAKNTVYLQMDSLIPEDIAVYYCGAPGSSTYDLEYWGQGTQVTVSS	high polyreactivity
QVQLVESGGGLVQAGGSIRLSCAASGINFYGNAMGWYRQAPGKETELVAAISWSGSSTYYADSVKGRFTISRDNAKNTVYFQMLSLKPEDTAVYYCKKATSSVRYLIYYYWGQGTQVTVSS	high polyreactivity

Sequence	polyreactivity (PSR sort gate)
QVQLVESGGGLVQAGGSLRLSCAASGYTFVKYAMGWYRQAPGKERELVASISWSGGRTYYADSVKGRFTISRDNAKNTVYLQMNSLKPEDTAVYYCATRPTWYSYDYWGHGTQVTVSS	high polyreactivity
QVQLVESGGCLVQAGGSLRLSCAASGSIFKWYAMGWYRQAPGKERELVAAITRGGSTNYADSVQGRFTISRDNAKNTVYLQMNSLKPEDTAVYYCNAVYTYRSGFGYWGQGTQVTVSS	low polyreactivity
QVQLVESGGGLVQAGGSLRLSCAASGFICGYNAMGWYRQAPGKERELVASINWSGGRTYYADSVKGRFTISRDNAKITVYLQMNSLKPEHTAVYYCNADGSRRYNYWGQGTQVTVSS	low polyreactivity
QVQLVESGGGLVQAGGSLRLSCAASGRIFARYAMGWYRQAPGKERELVAAITTSGDSTYYADSVKGRFTISRDNAKNTVYLQMNSLKPEDTAVYYCAAERRYGRYYRLVRLLGQGTQVTVSS	high polyreactivity
QVQLVESGGGLVQAGGSLRLSCAASGGTFSPYAMGWYRQAPGKERELVAAIRYSGDRTYYADSVKGRFTISRDNAKNTVYLQMNSLKPEDTAVYYCAGPYYNTGYRYGYWGQGTQVTVSS	high polyreactivity
QVQLVESGGGLVQAGGSLRLSCAASGFIFQTNVMGWYRQAPGKERELVAAISSGDSTYYADSVKGRFTISRDNAKNTVYLQLNSLKPEDTAVYYCAADVLGTTTTVGGFNYWGQGTQVTVSS	low polyreactivity
PVQLVESGGGLVQAGGSLRLSCAASGSTFVVYAMGWYRQAPGKERELVAAITSGVSTNYADSVKGRFTISRDNAKNTVYLQMNSLKPEDTAVYYCNKDVRPAYRWYDYWGQDTQVTVSS	low polyreactivity
QVQLVESGGGLVHAVGSLRLSCAASGFIFHEYAMGCYIQAPGKERELVAAISSGGGSTYYADSVKGRFTISRDNAKNTVYLQMNSLKPEDTAVYYCAADATAYSVLTRDYWGQGTQVTVSS	high polyreactivity
QVQLVESGGGLVQAGGSLRLSCAASRSTFYYYAMGWYRQAPGKERELVATISWSGDSTYADSVKGRFTISRDNAKNTVYLQMNRLKPEDTAVYYCATSGDWWGFRYDYLGQGTQVTVSS	low polyreactivity
QVQLVESGGGLVQAGGSLRLSCAASGRIFYGYTMGWYRQAPGKERELVADISWRGGSTSYADSVKGRFTISRDNAKNTVYLQMNSLKPEDTAVYYCAKRYRPESLYPFYNPYDYWGQGTQVTVSS	low polyreactivity
QVQLVESGGGLVQAGGSLRLSCAASGRTFYRYAMGWYRQAPGKERELFAAISGSGTSTSYADSVKGRFTISRDNAKNTVYLQLNSLKPDDTAVYYCAATYYVYYYSRYYYWGQGTQVTVSS	high polyreactivity
QVQLVESGGGLVQAGGSLRLSCAASGFTFDFYAMGWYRQAPGKERELVAAINWSGSSTYYADSVKGRFTISRDNAKNTVYLQMNSLKPEDTAVYYCAAQVYYTLFPDVYTMYYWGQGTQVTVSS	high polyreactivity
QVQRVESGGGLVQAGGSLRLSCAASGRTFAPYAMGWSRQAPGKARELVAGITYGGSRTYYADSVKGRFTISRDNAKNTVYLQMNSLKPEDPAVYYCNARSYPYQIRYVTYGAGYYYWGQGTQVTVSS	high polyreactivity
QLQLVESGGGLVQAGARLRLSCAASGSIFRFNPMGWYIPAPGKERELVAAITSSGDSTYYADSVKGRFTISRDNAKYTVYLQMNCLKPEDTAVSDCAAVRNRFIGWTVRYNWARIYNYWGQGTQVTVSS	high polyreactivity
QVQLVESGGGLVQAGGSLRLSCAASGRIFVGNAMGWYRQAPGKERELVAAITRSGSRTYYADSVKGRFTISRDNAKNTVYLQMISLKPEDTAVYYCNAPIRTWPGYDYWGQGTQVTVSS	high polyreactivity
QVQLVESGGGLVQAGGSRRLSCAASGSIFYYNTMGWSRQAPGKERELVAAMRFDDGSTYYADSVKGRFTISRDNAKYTVYLQMNSLKPEDTAVYYCSADWIVVSEFGLDYHMDYWGQGNQVTVSS	low polyreactivity
QVQLVESGGGVDQAGGSLRLSGAASGSTFHSYTMGWYRQAPGKERELVAAITRSGGSTYYADSGKGRFTISRETAKNTVYLQMNSQKPEDTAVYYCAVPYCRNSRLVDLAYHFYYWGQGTQVTVSS	high polyreactivity
QVQLVESGGGLVQAGGSLRLSCAASGFTLRANAMGWYRQAPGKERELVAAITRTGGRTYYADSVKGRFTISRDNAKNTVYLQMNSLKPEDTAVYYCAADHGPSKWYDYWGQGTEVTVSS	low polyreactivity
QVQLVESGGGLVQAGGSLRLSCAASGPTFWVYAMGWNRQAPGKERELVAAISRSGVSTYYADSVKGRFTISRDNAKNTVYLQMNSLKPEDTAVYYCAAPLIYTPLKYHYWGQGTQVTVSS	low polyreactivity
QVQLVESVGGLVQAGGSLRLSSAASGYTSNIYAMGWYRQAPGTERELVASIRGRSGSTYYADSVKGRFTISRDNAKNSVYLQMNSLKPEDTAVYYCAGSRPWDFYRFGFDYWGQGTQVTVSS	high polyreactivity
